From US20100190689

How the values were obtained:
Experiment in all cases: filter
[1] = test system: T1, GST-MBNL1-41-del105 deletion of C-terminal 105 aa (all four zinc fingers kept) (Homo sapiens), Q9NR56-5; conditions: C-terminal deletion has no significant influence on binding; same buffer
T1 sequence: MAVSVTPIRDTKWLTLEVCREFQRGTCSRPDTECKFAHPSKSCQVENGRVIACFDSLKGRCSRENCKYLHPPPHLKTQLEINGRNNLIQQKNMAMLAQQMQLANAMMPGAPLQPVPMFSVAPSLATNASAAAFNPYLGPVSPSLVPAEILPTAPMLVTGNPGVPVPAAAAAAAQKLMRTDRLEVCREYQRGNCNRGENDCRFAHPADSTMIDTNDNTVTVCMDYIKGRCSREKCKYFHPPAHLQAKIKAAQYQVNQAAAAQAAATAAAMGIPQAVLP

MBNL1-42 (Homo sapiens) = biological target: T2, MBNL1-42 (Homo sapiens) (UniProt Q9NR56); conditions: stated collectively for 41 and 42 kD isoforms
T2 sequence: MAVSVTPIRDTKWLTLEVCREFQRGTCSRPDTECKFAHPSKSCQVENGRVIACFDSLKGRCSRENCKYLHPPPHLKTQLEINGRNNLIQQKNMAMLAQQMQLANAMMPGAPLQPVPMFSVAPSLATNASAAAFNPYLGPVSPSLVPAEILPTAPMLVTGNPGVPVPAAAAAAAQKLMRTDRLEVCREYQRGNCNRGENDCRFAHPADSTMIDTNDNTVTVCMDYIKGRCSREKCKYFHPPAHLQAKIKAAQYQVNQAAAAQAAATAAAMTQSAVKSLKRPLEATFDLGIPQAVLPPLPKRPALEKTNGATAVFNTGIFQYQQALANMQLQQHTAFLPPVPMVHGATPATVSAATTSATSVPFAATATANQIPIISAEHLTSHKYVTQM

[2] = test system: T3, GST-MBNL1-41 full length (Homo sapiens), Q9NR56-5; conditions: GST has no significant influence on binding; same buffer
T3 sequence: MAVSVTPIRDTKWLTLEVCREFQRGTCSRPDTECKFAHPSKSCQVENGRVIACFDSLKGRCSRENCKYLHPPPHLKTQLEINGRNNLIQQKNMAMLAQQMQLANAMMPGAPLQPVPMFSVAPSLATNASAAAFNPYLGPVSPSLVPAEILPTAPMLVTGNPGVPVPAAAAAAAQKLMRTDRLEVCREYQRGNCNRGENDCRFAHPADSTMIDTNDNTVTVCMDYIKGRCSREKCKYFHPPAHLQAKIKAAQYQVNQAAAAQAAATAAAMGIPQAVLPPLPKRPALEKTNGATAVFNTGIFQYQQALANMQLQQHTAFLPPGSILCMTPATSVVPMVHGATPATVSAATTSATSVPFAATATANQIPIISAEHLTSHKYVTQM

[3] = test system: T4, MBNL1-41 full length, GST cleaved (Homo sapiens), Q9NR56-5; conditions: nitrocellulose filter; 50 mM Tris pH 8.0, 50 mM NaCl, 50 mM KCl, 1 mM Mg, 0.1 mM DTT; value stated for all forms tested
T4 sequence: T3 sequence

Measured: Kd

CUG [poly(CUG)109]
10 nM: all assays above
